This note sets out measurements from PMC11106675, “Synthesis of 1,4-azaphosphinine nucleosides and evaluation as inhibitors of human cytidine deaminase and APOBEC3A” (Beilstein Journal of Organic Chemistry, 2024).

Substrate in this series: Nc1ccn([C@H]2C[C@H](O)[C@@H](CO)O2)c(=O)n1
Put plainly: UV kinetic assay of hCDA-catalysed 2'-deoxycytidine deamination. It counts as biochemical, human. The following applies: other: pH 7.4, fitted in the experiment with inhibitor β-anomer of Vb, 25.0 °C. How it is done: We monitored the hCDA-catalysed deamination of dC at 286 nm and analysed the kinetic profiles at various inhibitor concentrations using a global regression analysis of the kinetic data using Lambert’s W function. This method provides better estimates for the Michaelis–Menten constant (KM) and maximum velocity (Vmax) than nonlinear regression analysis of the initial rate (V0). […] Then, KM for the substrate and Ki for each inhibitor were calculated, assuming competitive nature of the inhibitors (Table 1).
We assumed that protonation of Va might result in some inhibition of hCDA. […] This means that the pH value of the assay should be close to pH 1.5 to see any meaningful effect of partially protonated compound Va, but hCDA would be denatured at this pH value. By lowering the pH value to 6.0, dZ (IIc) started to lose potency against hCDA (Table 1), which might be a result of protonation of the pyrimidine ring in dZ (IIc). […]
Figure S10. hCDA (27nM) catalysed deamination of 2'-deoxycitidine (⁓1.5 mM) in the absence (plus) and presence of 5 µM 2'-deoxyzebularine (IIc, asterisk) monitored by measuring absorbance at 286 nm over time in 100 mM NaCl, 1 mM TCEP, 50 mM phosphate buffer at 25 °C, at pH 7.4. […]
where mm(t) calculates the current substrate concentration with respect to the time, t. […] A summary of the measured inhibition […]
Uncertainty of Ki was calculated using error-propagation method. […]

B1: human cytidine deaminase (hCDA) (Homo sapiens) (protein)
chain: MAQKRPACTLKPECVQQLLVCSQEAKKSAYCPYSHFPVGAALLTQEGRIFKGCNIENACYPLGICAERTAIQKAVSEGYKDFRAIAIASDMQDDFISPCGACRQVMREFGTNWPVYMTKPDGTYIVMTVQELLPSSFGPEDLQKTQ
notes: purchased Sigma-Aldrich SRP6372; host or cells: E. coli
The term Km denotes the concentration of substrate that gives half-maximal velocity. Regarding B1, the Km came out at 240 ± 150 µM.
